Source: patent US20230094867A1 (Janssen / Centocor, published 2023)
Where “and” joins values, the source holds several entries; their conditions need not be identical. Equal values may be shown once.

Key:
[1] = molecular target: T1, CD9B503 (CD9B441-HL-scFv-Fc bivalent fusion protein) (Biotinylated in the panning and MSD screening assays of Example 1.); experiment: SPR (Biacore), mAb captured on anti-mouse Fc chip, scFv-Fc antigen 100 nM to 0.16 nM in solution
T1 construct: also called CD9B441-derived scFv-fusion protein
Protocol: (§1) Biacore system (Cytiva) was used to measure bio-molecular interactions by surface plasmon resonance (SPR). Anti-Mouse Fc antibody directly immobilized on a CMS sensor chip. Library Antibodies (Mouse IgG2a) diluted to 1 ug/ml to reach approximately 20-60 RU. Antigens (scFv Fc fusions) are associated at 100 nM to 0.16 nM, 1:5 dilutions for 3 minutes. Dissociation for 30 mins. The results of the assay (Table 1 below) show the nanomolar dissociation constant of A003B192 and A003B274 with CD9B503 (CD9B441-HL-scFv-Fc bivalent fusion protein) and CD9B574 (CD9B441-LH-scFv-Fc monovalent fusion protein).

[2] = molecular target: T2, CD79b CAR (CD9B441-HL) expressed on SupT1 cells; experiment: flow cytometry on live CD9B441-HL SupT1 cells, detected with PE goat anti-mouse IgG; PE median fluorescence intensity
T2 construct: Chimeric antigen receptor with the CD9B441 scFv in VH-VL order; also called SupT1-CD9B441-HL; CD9B441-HL SupT1 cells
Protocol: SupT1 cells expressing CD9B441-HL were compared to parental CAR-SupT1 cells. Cells (200,000 cells/well) were stained with LIVE/DEAD Fixable Near-IR viability dye (Life Technologies cat #L10119) and then incubated with increasing concentrations of A003B192 and A003B274 for 45 minutes on ice. In addition, both anti-idiotypic antibodies were tested in the presence of Fc-CD9B441-HL fusion protein to assess the specificity of A003B192 and A003B274 binding to CD9B441-HL CAR. Following incubation, the samples were washed with BSA stain buffer (BD Biosciences cat #554657) and stained with PE-goat anti-mouse IgG polyclonal antibody (Biolegend cat #405307) to detect bound antibody on live CAR+SupT1 cells. After incubation, washing, and fixation (Cytofix, BD Biosciences cat #554655), the samples were acquired on a 10 color FACSCanto II (BD Biosciences) flow cytometer. Analysis was done using FlowJo (TreeStar) and the PE median fluorescent intensity of live CAR+SupT1 cells plotted in FIG. 3A. No binding was detected on CAR-SupT1 parental cells (data not shown) or in the presence of excess Fc-CD9B441-HL CAR fusion protein.

[3] = molecular target: T1, CD9B503 (CD9B441-HL-scFv-Fc bivalent …); experiment: MSD electrochemiluminescent immunoassay, crude Fab lysate on biotinylated scFv-Fc on streptavidin plate
Protocol: The monoclonal Fab lysates prepared from the enriched Fab libraries were screened in Meso Scale Discovery (MSD) based electro-chemiluminescent immunoassays (ECLIA) for binding to CD9B503 but not to a similar negative control scFv fusion protein CD9B504 (CD9B449-HL-scFv Fc). Biotinylated ScFv-Fc fusion antigens, target antigen CD9B503 or negative control scFv fusion protein counter screening reagent CD9B504, were diluted to a concentration of 2.5 nM in SuperBlock T20 (TBS) Blocking Buffer (Thermo cat #37536) and 50 ul/well was added to their respective MSD 384-well streptavidin plates (Meso Scale Discovery cat #L21SA-5) and incubated on a shaker for 30 min at RT. The plates were washed 1×80 ul/well 1×PBST and crude Fab lysates from E. coli expressions in 96-well plates were stamped into the 384-well assay plates in duplicate and incubated on a shaker for 1 hour at RT. The assay plates were washed 1×80 ul/well 1×PBST and 6 nM of SULFO-TAG Anti-human/NHP Kappa Antibody (Meso Scale cat #D20TF-6) added at 10 ul/well, and the plates incubated on a shaker for 1 hour at RT. The plates were washed 2×80 ul/well 1×PBST and 35 ul/well of 1×MSD Read Buffer T (Meso Scale cat #R92TC-1) added to each well and the plates analyzed on an MSD Sector 5600 plate reader. […]

[4] = molecular target: T2, CD79b CAR (CD9B441-HL) expressed on …; experiment: flow cytometry on live CD9B441-HL SupT1 cells with directly rPE-conjugated antibody; PE median fluorescence intensity
[5] = molecular target: T3, CD9B574 (CD9B441-LH-scFv-Fc monovalent fusion protein); experiment: SPR (Biacore), mAb captured on anti-mouse Fc chip, scFv-Fc antigen 100 nM to 0.16 nM in solution
T3 construct: Described only as CD9B441-LH-scFv-Fc monovalent fusion protein
Protocol: as §1

T1 sequence (scFv, as listed by the source limits assumed): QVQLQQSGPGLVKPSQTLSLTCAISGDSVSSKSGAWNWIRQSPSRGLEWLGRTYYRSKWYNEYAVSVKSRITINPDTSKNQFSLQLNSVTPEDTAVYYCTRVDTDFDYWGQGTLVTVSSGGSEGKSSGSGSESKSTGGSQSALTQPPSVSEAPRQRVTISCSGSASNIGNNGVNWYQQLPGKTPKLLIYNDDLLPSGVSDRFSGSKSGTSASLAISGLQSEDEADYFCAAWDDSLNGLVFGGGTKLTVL
T2 sequence (chain, as listed by the source limits assumed): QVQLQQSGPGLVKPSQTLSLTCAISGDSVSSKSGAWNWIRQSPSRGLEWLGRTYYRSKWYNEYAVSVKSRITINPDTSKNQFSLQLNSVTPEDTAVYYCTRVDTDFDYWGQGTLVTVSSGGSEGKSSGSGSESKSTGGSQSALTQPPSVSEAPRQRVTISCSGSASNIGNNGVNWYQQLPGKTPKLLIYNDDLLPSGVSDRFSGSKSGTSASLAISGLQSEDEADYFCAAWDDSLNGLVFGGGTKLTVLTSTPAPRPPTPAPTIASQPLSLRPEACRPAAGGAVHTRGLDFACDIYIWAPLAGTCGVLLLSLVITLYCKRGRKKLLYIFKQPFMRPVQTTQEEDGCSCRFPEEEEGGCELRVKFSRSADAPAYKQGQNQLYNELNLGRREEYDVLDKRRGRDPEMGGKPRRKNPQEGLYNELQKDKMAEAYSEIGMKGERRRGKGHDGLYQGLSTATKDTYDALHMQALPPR
T3 sequence (scFv, as listed by the source limits assumed): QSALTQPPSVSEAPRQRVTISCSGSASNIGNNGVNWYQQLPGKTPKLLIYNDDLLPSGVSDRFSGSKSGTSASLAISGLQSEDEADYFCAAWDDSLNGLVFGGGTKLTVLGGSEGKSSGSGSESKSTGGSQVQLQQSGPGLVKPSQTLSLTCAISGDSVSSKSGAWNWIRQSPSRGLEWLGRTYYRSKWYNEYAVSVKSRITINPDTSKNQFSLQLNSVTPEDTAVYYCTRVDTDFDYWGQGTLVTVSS

Row | Binder | Kd [1] | EC50 (read off the curve) [2] | signal ratio of CD9B503 over CD9B504 [3] | other results
1 | A003B274 (antibody, mouse IgG2a, kappa, V domains shown, also called anti-idiotypic antibody A003B274; HC construct PBD000109922 / LC construct PBD00098715) VH: QVQLVQSGAEVKKPGSSVKVSCKASGGTFKSYAISWVRQAPGQGLEWMGYISPESGTANYAQKFQGRVTITADESTSTAYMELSSLRSEDTAVYYCARERYYYGYRRYRYYGMDVWGQGTLVTVSS VL: not shown | 0.23 nM and 0.226 nM | ~0.04 µg/mL |  | 
2 | CL002588437 (monoclonal Fab, parent clone for the VH and VL in A003B274) (Fab, V domains shown, Soluble human Fab in crude E. coli lysate) VH: QVQLVQSGAEVKKPGSSVKVSCKASGGTFKSYAISWVRQAPGQGLEWMGYISPESGTANYAQKFQGRVTITADESTSTAYMELSSLRSEDTAVYYCARERYYYGYRRYRYYGMDVWGQGTLVTVSS VL: not shown |  |  | 10 | 
3 | recombinant phycoerythrin-conjugated A003B192 (antibody, mouse IgG2a, kappa, V domains shown, antibody conjugated to recombinant phycoerythrin (rPE), 1:1 PE:antibody; site of attachment not stated, also called A003B192 conjugated to rPE; PE-antibody conjugate) VH: QVQLVQSGAEVKKPGSSVKVSCKASGGTFKSDAISWVRQAPGQGLEWMGGIRPNEGNAEYAQKFQGRVTITADESTSTAYMELSSLRSEDTAVYYCARGRYGAYRLVYYAFDYWGQGTLVTVSS VL: not shown |  |  |  | binding result [4]: binds
4 | A003B192 (antibody, mouse IgG2a, kappa, V domains shown, also called anti-idiotypic antibody A003B192; HC construct PBD000109791 / LC construct PBD00098715) VH: QVQLVQSGAEVKKPGSSVKVSCKASGGTFKSDAISWVRQAPGQGLEWMGGIRPNEGNAEYAQKFQGRVTITADESTSTAYMELSSLRSEDTAVYYCARGRYGAYRLVYYAFDYWGQGTLVTVSS VL: not shown | 0.04 nM and 0.037 nM | ~0.02 µg/mL |  | Kd [5]: 1.6 nM and 1.61 nM
5 | CL002588468 (monoclonal Fab, parent clone for the VH and VL in A003B192) (Fab, V domains shown, Soluble human Fab in crude E. coli lysate) VH: QVQLVQSGAEVKKPGSSVKVSCKASGGTFKSDAISWVRQAPGQGLEWMGGIRPNEGNAEYAQKFQGRVTITADESTSTAYMELSSLRSEDTAVYYCARGRYGAYRLVYYAFDYWGQGTLVTVSS VL: not shown |  |  | 10 | 
